Test results reported in PMC3507683, “Crystal Structure of the Hexachlorocyclohexane Dehydrochlorinase (LinA-Type2): Mutational Analysis, Thermostability and Enantioselectivity” (PLoS ONE, 2012).

Target: the molecule itself
Experiment: crystal structure; hanging drop, 293 K, 0.1 M trisodium citrate pH 5.5, 3% PEG 3350; space group P6(3)22; seven subunits in the asymmetric unit; 3.5 Å

B1: Hexachlorocyclohexane dehydrochlorinase LinA-type2 (enzyme, UniProt P51697 1-156, looked up)
chain: MSDLDRLASRAAIQDLYSDQLIGVDKRQEGRLASIWWDDAEWTIEGIGTYKGPEGALDLANNVLWPMYHETIHYGTNLRLEFVSADKVNGIGDVLCLGNLVEGNQSILIAAVYTNEYERRDGVWKFSKLNGCMNYFTPLAGIHFAPPGIHFAPSGA
notes: LinA-type2, gamma-hexachlorocyclohexane dehydrochlorinase variant obtained by PCR from metagenomic DNA of an HCH-contaminated soil (GenBank EU863871); It differs by 10 residues from LinA-type1 (= LinA-UT26 of Sphingobium japonicum UT26, 156 amino acids); The printed primers run from the ATG start codon to the last codon, without a stop codon; Homotrimer; also called -type2 protein; source: E. …
stoichiometry N: 3
